Four substances from publication PMC7209288 can be followed below.

The target in one assay is human C5. In words: SPR; fit not_stated; antibody as IgG; antigen as monomer; on the surface: not_stated; avidity not_told. Particulars: pH 7.4; second pH 6.0. Background: In SPR one partner is held on a chip, and binding of the other changes the refractive index at the surface.
In assay [1] the target is Complement component C5 (human, wild type) (UniProt P01031). In words: SPR (Biacore). Particulars: for t1/2 ratio pH7.4/pH6.0: pH 6.0-7.4, not stated (pH 7.4 and pH 6.0 compared); for KD / T1/2 (half-life of the complex): pH 7.4, 25 °C, not stated for this experiment (the 37 °C screen used 150 mM NaCl), not stated explicitly for the 25 °C runs, pH 7.4 (the 37 °C screen used HBS-EP: 10 mM Hepes).
UniProt P01031, sequence (P01031 whole entry): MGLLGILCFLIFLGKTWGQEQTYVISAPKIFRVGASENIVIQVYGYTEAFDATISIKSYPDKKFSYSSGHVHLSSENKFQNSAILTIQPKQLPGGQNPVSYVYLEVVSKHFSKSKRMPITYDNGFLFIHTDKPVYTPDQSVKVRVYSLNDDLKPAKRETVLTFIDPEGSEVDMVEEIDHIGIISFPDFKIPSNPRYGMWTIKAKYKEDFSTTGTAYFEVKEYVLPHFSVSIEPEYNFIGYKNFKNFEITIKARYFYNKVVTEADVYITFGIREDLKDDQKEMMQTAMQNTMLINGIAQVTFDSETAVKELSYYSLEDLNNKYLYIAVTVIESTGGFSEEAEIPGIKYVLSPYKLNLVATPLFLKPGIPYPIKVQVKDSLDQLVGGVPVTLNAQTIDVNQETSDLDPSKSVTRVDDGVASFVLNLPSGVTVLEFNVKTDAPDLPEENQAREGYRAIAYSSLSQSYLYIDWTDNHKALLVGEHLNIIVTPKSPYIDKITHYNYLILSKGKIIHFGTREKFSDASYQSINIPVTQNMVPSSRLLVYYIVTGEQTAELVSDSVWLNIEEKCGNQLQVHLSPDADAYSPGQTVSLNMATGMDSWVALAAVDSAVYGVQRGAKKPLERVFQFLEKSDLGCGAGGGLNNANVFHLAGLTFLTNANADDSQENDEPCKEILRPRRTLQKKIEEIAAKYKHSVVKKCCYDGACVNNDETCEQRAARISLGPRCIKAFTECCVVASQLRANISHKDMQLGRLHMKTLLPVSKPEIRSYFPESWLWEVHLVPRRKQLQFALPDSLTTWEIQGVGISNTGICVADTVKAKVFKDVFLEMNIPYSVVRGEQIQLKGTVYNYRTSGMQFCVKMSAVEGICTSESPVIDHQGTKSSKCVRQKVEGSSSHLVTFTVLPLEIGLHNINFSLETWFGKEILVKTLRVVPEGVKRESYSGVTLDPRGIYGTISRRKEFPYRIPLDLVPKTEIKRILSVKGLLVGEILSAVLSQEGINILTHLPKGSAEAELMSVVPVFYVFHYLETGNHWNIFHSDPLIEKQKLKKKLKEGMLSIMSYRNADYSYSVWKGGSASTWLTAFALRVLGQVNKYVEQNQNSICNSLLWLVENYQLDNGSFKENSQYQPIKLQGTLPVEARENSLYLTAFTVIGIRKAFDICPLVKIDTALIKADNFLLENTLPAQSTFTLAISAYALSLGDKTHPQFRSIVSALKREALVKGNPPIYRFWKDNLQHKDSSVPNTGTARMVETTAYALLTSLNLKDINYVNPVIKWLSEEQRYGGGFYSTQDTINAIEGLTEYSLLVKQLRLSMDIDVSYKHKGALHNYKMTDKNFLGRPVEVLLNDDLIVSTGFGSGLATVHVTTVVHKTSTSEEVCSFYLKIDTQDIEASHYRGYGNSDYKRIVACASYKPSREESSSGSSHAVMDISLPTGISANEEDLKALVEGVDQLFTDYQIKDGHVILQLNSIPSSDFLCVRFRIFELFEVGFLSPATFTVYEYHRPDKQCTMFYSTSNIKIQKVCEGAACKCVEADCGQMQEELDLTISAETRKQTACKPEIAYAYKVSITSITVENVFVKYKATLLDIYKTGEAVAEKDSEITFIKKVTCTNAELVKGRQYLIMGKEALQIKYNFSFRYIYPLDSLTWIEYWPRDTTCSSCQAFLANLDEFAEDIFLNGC

Assay [2] has the same target. In words: SPR (Biacore T200, CM4 chip). The note with it: pH 7.4, 37 °C, 150 mM NaCl, HBS-EP: 10 mM Hepes.

As to In-house eculizumab, the t1/2 ratio of binding hC5 at pH7.4/pH6.0 with human C5 was 5.2.

On to REGN3918, for which the t1/2 ratio of binding hC5 at pH7.4/pH6.0 with human C5 was 3.8.

Turning to “In-house eculizumab, anti-human C5 monoclonal antibody”, in assay [1], the “t1/2 ratio pH7.4/pH6.0” value is given as “t1/2 ratio of binding hC5 at pH7.4/pH6.0 = 5.2”; the KD (as a rule, a measure of binding affinity in units of concentration) came to 0.301 nM; the T1/2 (half-life of the complex) amounted to 1.72 h.

For “REGN3918 (pozelimab), anti-human C5 monoclonal antibody S228P (EU numbering, IgG4 hinge)”, in assay [2], the KD came to 0.262 nM and the T1/2 (half-life of the complex) amounted to 0.833 h. In addition, in assay [1], the “t1/2 ratio pH7.4/pH6.0” value is “t1/2 ratio of binding hC5 at pH7.4/pH6.0 = 3.8”, the KD is 0.189 nM and the T1/2 (half-life of the complex) was found to be 1.03 h.
